Reference: IntAct's records for PubMed 25260751

B1: Mitogen-activated protein kinase kinase kinase 1 (Rattus norvegicus (Rat)), Q62925 (parent)
chain: MAAAAGDRASSSGFPGAAAASPEAGGGGGALQGSGAPAAGAGLLRETGSAGRERADWRRQQLRKVRSVELDQLPEQPLFLTASPPCPSTSPSPEPADAAAGASGFQPAAGPPPPGAASRCGSHSAELAAARDSGARSPAGAEPPSAAAPSGREMENKETLKGLHKMDDRPEERMIREKLKATCMPAWKHEWLERRNRRGPVVVKPIPIKGDGSEMSNLAAELQGEGQAGSAAPAPKGRRSPSPGSSPSGRSGKPESPGVRRKRVSPVPFQSGRITPPRRAPSPDGFSPYSPEETSRRVNKVMRARLYLLQQIGPNSFLIGGDSPDNKYRVFIGPQNCSCGRGTFCIHLLFVMLRVFQLEPSDPMLWRKTLKNFEVESLFQKYHSRRSSRIKAPSRNTIQKFVSRMSNCHTLSSSSTSTSSSENSIKDEEEQMCPICLLGMLDEESLTVCEDGCRNKLHHHCMSIWAEECRRNREPLICPLCRSKWRSHDFYSHELSSPVDSPTSLRGVQQPSSPQQPVAGSQRRNQESNFNLTHYGTQQIPPAYKDLAEPWIQAFGMELVGCLFSRNWNVREMALRRLSHDVSGALLLANGESTGTSGGGSGGSLSAGAASGSSQPSISGDVVEAFCSVLSIVCADPVYKVYVAALKTLRAMLVYTPCHSLAERIKLQRLLRPVVDTILVKCADANSRTSQLSISTLLELCKGQAGELAVGREILKAGSIGVGGVDYVLSCILGNQAESNNWQELLGRLCLIDRLLLEISAEFYPHIVSTDVSQAEPVEIRYKKLLSLLAFALQSIDNSHSMVGKLSRRIYLSSARMVTTVPPLFSKLVTMLSASGSSHFARMRRRLMAIADEVEIAEVIQLGSEDTLDGQQDSSQALAPPRYPESSSLEHTAHVEKTGKGLKATRLSASSEDISDRLAGVSVGLPSSATTEQPKPTVQTKGRPHSQCLNSSPLSPPQLMFPAISAPCSSAPSVPAGSVTDASKHRPRAFVPCKIPSASPQTQRKFSLQFQRTCSENRDSEKLSPVFTQSRPPPSSNIHRAKASRPVPGSTSKLGDASKNSMTLDLNSASQCDDSFGSGSNSGSAVIPSEETAFTPAEDKCRLDVNPELNSSIEDLLEASMPSSDTTVTFKSEVAVLSPEKAESDDTYKDDVNHNQKCKEKMEAEEEEALAIAMAMSASQDALPIVPQLQVENGEDIIIIQQDTPETLPGHTKANEPYREDTEWLKGQQIGLGAFSSCYQAQDVGTGTLMAVKQVTYVRNTSSEQEEVVEALREEIRMMSHLNHPNIIRMLGATCEKSNYNLFIEWMAGASVAHLLSKYGAFKESVVINYTEQLLRGLSYLHENQIIHRDVKGANLLIDSTGQRLRIADFGAAARLASKGTGAGEFQGQLLGTIAFMAPEVLRGQQYGRSCDVWSVGCAIIEMACAKPPWNAEKHSNHLALIFKIASATTAPSIPSHLSPGLRDVALRCLELQPQDRPPSRELLKHPVFRTTW

Variants of: B1
Conditions: with ube2n_human UBE2N

Variant | effect of a mutation on the interaction
L438A;M440A | disrupting interaction
